Experimental data published in publication PMC8542614.
Where “and” joins values, the source holds several entries; their conditions need not be identical. Equal values may be shown once. Read-outs that look alike come from different tables or passages of the source.

Columns and labels:
[1] = target: HCV E2 ectodomain (eE2), full length, residues 384-656, genotype J6 (HCV genotype J6); assay: ITC
[2] = target: HCV E2 ectodomain (eE2), full length, residues 384-656, genotype J6 (HCV genotype J6); assay: ITC; remark: listed apart in the source

B1: human CD81 large extracellular loop (hCD81-LEL), residues 112-202 (domain or fragment)
chain: GFVNKDQIAKDVKQFYDQALQQAVVDDDANNAKAVVKTFHETLDCCGSSTLTALTTSVLKNNLCPSGSNIISNLFKEDCHQKIDDLFSGKL
Question: Which Kd [1] does the source give for B1 here?
Answer: The Kd was 681 nM.

Question: What about the dH [1] of the same binder?
Answer: Its dH is -7.89 kcal/mol and -6.65 kcal/mol.

Question: What about the stoichiometry N [1] of the same binder?
Answer: Its stoichiometry N is 0.99 and 0.86.

Question: What about the Kd [2] of the same binder?
Answer: Its Kd is 773 nM.
